Results taken from the supplement of paper PMC9170038.

Tested on: K4 kissing-loop RNA reporter
Test: apparent KD of K4 kissing-loop reporter; higher = weaker reporter binding
Settings: Eterna round: R107
Method: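 RNA-MaP round R107: designed RNA switches with theophylline, tryptophan, arginine or FMN aptamers are transcribed on-chip within common flanks. They are titrated with a labelled K4 kissing-loop RNA reporter in RNA-MaP buffer (100 mM Tris pH 7.5, 80 mM KCl, 4 mM MgCl2), without ligand or with the indicated ligand. Median apparent KD per design.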

[1] = input ligand: theophylline 20 uM
[2] = input ligand: tryptophan 2.4 mM
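Also: bound reporter read as fluorescence of individual clusters on recovered sequencing chips by microscopy, with normalized cluster intensities fitted with a binding model.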

GAUUGAGGAAACUCGAUCUUAUAUCCUAGGCAGGAUAUGCGGAAACGCAGAAGGGCCACCUAGCAGUGAUGUUGCAAGCGAAAGC [Ex FMN A 5]
apparent KD of K4 kissing-loop reporter (input ligand: FMN 200 uM): 203 nM
apparent KD of K4 kissing-loop reporter (input ligand: arginine 13.2 mM): 425 nM
apparent KD of K4 kissing-loop reporter (input ligand: none): 379 nM
apparent KD of K4 kissing-loop reporter [1]: 471 nM
apparent KD of K4 kissing-loop reporter [2]: 207 nM

GCAAAACAAACGUAGAGUGGAACACAGAGACGAGGACCGGUACGGCCGCCACUCGACGAGGUUUUCAGUGAUGUUGAAAAUUUAG [Exclusion Tryptophan A GF2]
apparent KD of K4 kissing-loop reporter (input ligand: FMN 200 uM): 133 nM
apparent KD of K4 kissing-loop reporter (input ligand: arginine 13.2 mM): 162 nM
apparent KD of K4 kissing-loop reporter (input ligand: none): 125 nM
apparent KD of K4 kissing-loop reporter [1]: 151 nM
apparent KD of K4 kissing-loop reporter [2]: 199 nM

GCAAAACGCAGUGAUGUUGCGAUAUCGGAAGGAGCGCGUGAAAACGCAGGUAGGUCGCCGAUUCAGUGAGUAUCUCGCUGUUUGC [Arginine A K4 18]
apparent KD of K4 kissing-loop reporter (input ligand: FMN 200 uM): 258 nM
apparent KD of K4 kissing-loop reporter (input ligand: arginine 13.2 mM): 283 nM
apparent KD of K4 kissing-loop reporter (input ligand: none): 293 nM
apparent KD of K4 kissing-loop reporter [1]: 259 nM
apparent KD of K4 kissing-loop reporter [2]: 232 nM

GCAGCACCGAGUGAUGUUUGGUUCAGCGUGAAGGAUAUAAUAUCUGUUAGAAGGUCAAGUGAGAUUGUCGCGAAUCAGUUUUGAU [theeternabot_exclusion_KL_FMN_A_41]
apparent KD of K4 kissing-loop reporter (input ligand: FMN 200 uM): 368 nM
apparent KD of K4 kissing-loop reporter (input ligand: arginine 13.2 mM): 248 nM
apparent KD of K4 kissing-loop reporter (input ligand: none): 309 nM
apparent KD of K4 kissing-loop reporter [1]: 332 nM
apparent KD of K4 kissing-loop reporter [2]: 290 nM

GCAGUGAUGUUGCACGAGUAGGGUAGAGUACGAGGACCGGUACGGCCGCCACUCGUACGGAACUCGCUAAUUUAUGGAAUGGUGA [I]
apparent KD of K4 kissing-loop reporter (input ligand: FMN 200 uM): 465 nM
apparent KD of K4 kissing-loop reporter (input ligand: arginine 13.2 mM): 590 nM
apparent KD of K4 kissing-loop reporter (input ligand: none): 752 nM
apparent KD of K4 kissing-loop reporter [1]: 761 nM
apparent KD of K4 kissing-loop reporter [2]: 497 nM

GCAGUGAUGUUGCGCAGGUACAGUGGAGUGCGAGGACCGGUACGGCCGCCACUCGUACAGAACUAGCUAAUAUAUGGAUAGGUGA [VIII]
apparent KD of K4 kissing-loop reporter (input ligand: FMN 200 uM): 287 nM
apparent KD of K4 kissing-loop reporter (input ligand: arginine 13.2 mM): 358 nM
apparent KD of K4 kissing-loop reporter (input ligand: none): 315 nM
apparent KD of K4 kissing-loop reporter [1]: 347 nM
apparent KD of K4 kissing-loop reporter [2]: 280 nM

GCAGUGAUGUUGCGCGGGUACGGUGGAGUGCGAGGACCGGUACGGCCGCCACUCGUACGGAACUGGCUAAUAUAUGGAUAGGUGA [VI]
apparent KD of K4 kissing-loop reporter (input ligand: FMN 200 uM): 397 nM
apparent KD of K4 kissing-loop reporter (input ligand: arginine 13.2 mM): 291 nM
apparent KD of K4 kissing-loop reporter (input ligand: none): 383 nM
apparent KD of K4 kissing-loop reporter [1]: 379 nM
apparent KD of K4 kissing-loop reporter [2]: 336 nM

GCAGUGAUGUUGCGGAUGUACAGUGGAGUGCGAGGACCGGUACGGCCGCCACUCGUACAGAACAAGCUAAUACAUCGAUAGGUGA [XI]
apparent KD of K4 kissing-loop reporter (input ligand: FMN 200 uM): 323 nM
apparent KD of K4 kissing-loop reporter (input ligand: arginine 13.2 mM): 358 nM
apparent KD of K4 kissing-loop reporter (input ligand: none): 461 nM
apparent KD of K4 kissing-loop reporter [1]: 409 nM
apparent KD of K4 kissing-loop reporter [2]: 339 nM

GCAUAGCAGACGUUGAGUGGGAGCCAGGCACGAGGACCGGUACGGCCGCCACUCGACUAGGUUUUCAGUGAUGUUGAAAAUUUAG [Exclusion Tryptophan A GF4]
apparent KD of K4 kissing-loop reporter (input ligand: FMN 200 uM): 151 nM
apparent KD of K4 kissing-loop reporter (input ligand: arginine 13.2 mM): 141 nM
apparent KD of K4 kissing-loop reporter (input ligand: none): 142 nM
apparent KD of K4 kissing-loop reporter [1]: 140 nM
apparent KD of K4 kissing-loop reporter [2]: 156 nM

GCAUAUACGAGAAGGAGCGUGCAUGACGAAUUAAUCAUCGACCUUAGUGAUGUUAAGGACGCACAGGUAGGUCGCUCGUGUAUGC [#04 K4 Arginine B Same State]
apparent KD of K4 kissing-loop reporter (input ligand: FMN 200 uM): 380 nM
apparent KD of K4 kissing-loop reporter (input ligand: arginine 13.2 mM): 322 nM
apparent KD of K4 kissing-loop reporter (input ligand: none): 347 nM
apparent KD of K4 kissing-loop reporter [1]: 345 nM
apparent KD of K4 kissing-loop reporter [2]: 354 nM

GCCAGAGCGCGAAGGAGCGCCGUGACAGGUUGCUGCCGUGGGCAGUGAUGUUGCUCAGUCCGGCAGGUAGGUCGCGUGCUCUGGC
apparent KD of K4 kissing-loop reporter (input ligand: FMN 200 uM): 422 nM
apparent KD of K4 kissing-loop reporter (input ligand: arginine 13.2 mM): 434 nM
apparent KD of K4 kissing-loop reporter (input ligand: none): 548 nM
apparent KD of K4 kissing-loop reporter [1]: 433 nM
apparent KD of K4 kissing-loop reporter [2]: 372 nM

GCCAGUGAUGUUGGCGAACCAACGCAUGCAGAGGAUAUUCGUUCGGGAAGAAGGCUGCAGCGUUCUCUCCCGCAGUGAUGUUGCG [Same State FMN A GF 25]
apparent KD of K4 kissing-loop reporter (input ligand: FMN 200 uM): 164 nM
apparent KD of K4 kissing-loop reporter (input ligand: arginine 13.2 mM): 141 nM
apparent KD of K4 kissing-loop reporter (input ligand: none): 169 nM
apparent KD of K4 kissing-loop reporter [1]: 153 nM
apparent KD of K4 kissing-loop reporter [2]: 150 nM

GCCAGUGAUGUUGGCGAACCGACGCAUGCAGAGGAUAUUCGAUCUUGAAGAAGGCUGCAGCGUCAUCAUACGCAGUGAUGUUGCG [Same State FMN A GF 27]
apparent KD of K4 kissing-loop reporter (input ligand: FMN 200 uM): 172 nM
apparent KD of K4 kissing-loop reporter (input ligand: arginine 13.2 mM): 156 nM
apparent KD of K4 kissing-loop reporter (input ligand: none): 182 nM
apparent KD of K4 kissing-loop reporter [1]: 161 nM
apparent KD of K4 kissing-loop reporter [2]: 139 nM

GCCGCCGCGGCAGGAUAUAGGUUCAUGGAGUGAUGUUCCAUAACCCGAGUGAUGUUCGUUAUCCGCCUAGAAGGGCCGCGGCGGC
apparent KD of K4 kissing-loop reporter (input ligand: FMN 200 uM): 201 nM
apparent KD of K4 kissing-loop reporter (input ligand: arginine 13.2 mM): 166 nM
apparent KD of K4 kissing-loop reporter (input ligand: none): 205 nM
apparent KD of K4 kissing-loop reporter [1]: 177 nM
apparent KD of K4 kissing-loop reporter [2]: 169 nM

GCCGUACGCAUGGAUACCAGCAUCAGAUCUUAGUGAUGUUAAGUCGAGAGUUGGUCAAAAUGCCCUUGGCAGCCAUGCGUACGGC
apparent KD of K4 kissing-loop reporter (input ligand: FMN 200 uM): 128 nM
apparent KD of K4 kissing-loop reporter (input ligand: arginine 13.2 mM): 90.8 nM
apparent KD of K4 kissing-loop reporter (input ligand: none): 105 nM
apparent KD of K4 kissing-loop reporter [1]: 99.5 nM
apparent KD of K4 kissing-loop reporter [2]: 98.2 nM

GCCGUACGCAUGGAUACCAGCUAUUAGAGUGAUGUUCUAUGGCCCUGCCAGAGUAGCUGUAGCCCUUGGCAGCCAUGCGUACGGC
apparent KD of K4 kissing-loop reporter (input ligand: FMN 200 uM): 148 nM
apparent KD of K4 kissing-loop reporter (input ligand: arginine 13.2 mM): 119 nM
apparent KD of K4 kissing-loop reporter (input ligand: none): 130 nM
apparent KD of K4 kissing-loop reporter [1]: 144 nM
apparent KD of K4 kissing-loop reporter [2]: 140 nM

GCCGUACGCAUGGAUACCAGUCUUUCACGACUGGGCAUGGAGUGAUGUUUCGUGAUGCUAGACCCUUGGCAGCCAUGCGUACGGC
apparent KD of K4 kissing-loop reporter (input ligand: FMN 200 uM): 201 nM
apparent KD of K4 kissing-loop reporter (input ligand: arginine 13.2 mM): 163 nM
apparent KD of K4 kissing-loop reporter (input ligand: none): 175 nM
apparent KD of K4 kissing-loop reporter [1]: 184 nM
apparent KD of K4 kissing-loop reporter [2]: 175 nM

GCCGUAGAUGGAAGGAGCGUGCGUGAAGUGAUGUUUCACGAAGAGUUUUCCACCUUAUAUGCACAGGUAGGUCGCCAUCUACGGC
apparent KD of K4 kissing-loop reporter (input ligand: FMN 200 uM): 114 nM
apparent KD of K4 kissing-loop reporter (input ligand: arginine 13.2 mM): 99 nM
apparent KD of K4 kissing-loop reporter (input ligand: none): 100 nM
apparent KD of K4 kissing-loop reporter [1]: 105 nM
apparent KD of K4 kissing-loop reporter [2]: 95.2 nM

GCCGUAGAUUGAAGGAGCGGACAGAUACGGGAAUCCAGUGAUGUUGGAAGGUAACUACUAGUCCAGGUAGGUCGCAAUCUACGGC
apparent KD of K4 kissing-loop reporter (input ligand: FMN 200 uM): 143 nM
apparent KD of K4 kissing-loop reporter (input ligand: arginine 13.2 mM): 128 nM
apparent KD of K4 kissing-loop reporter (input ligand: none): 136 nM
apparent KD of K4 kissing-loop reporter [1]: 146 nM
apparent KD of K4 kissing-loop reporter [2]: 129 nM

GCCUAGUGAUGUUGGGUAAUUUAAACCGGGCGAGGACCGGUACGGCCGCCACUCGGAAACACAACAAAAUUUAAUUUAAUUUAAA [Exclusion - Trytophan A]
apparent KD of K4 kissing-loop reporter (input ligand: FMN 200 uM): 176 nM
apparent KD of K4 kissing-loop reporter (input ligand: arginine 13.2 mM): 138 nM
apparent KD of K4 kissing-loop reporter (input ligand: none): 174 nM
apparent KD of K4 kissing-loop reporter [1]: 204 nM
apparent KD of K4 kissing-loop reporter [2]: 152 nM

GCGAAGUGAUGUUUCGCCAAUAUUUGAUGAAAGGAUAUCUACUUGAAGAGAAGGUUCAUAUGACUCAAUACCUGACUUGGACCCG [theeternabot_sameState_KL_FMN_A_37]
apparent KD of K4 kissing-loop reporter (input ligand: FMN 200 uM): 86.8 nM
apparent KD of K4 kissing-loop reporter (input ligand: arginine 13.2 mM): 84.2 nM
apparent KD of K4 kissing-loop reporter (input ligand: none): 81.4 nM
apparent KD of K4 kissing-loop reporter [1]: 82.9 nM
apparent KD of K4 kissing-loop reporter [2]: 74.6 nM
